# From article PMC8230527, “Structural and Biochemical Characterization of a Dye-Decolorizing Peroxidase from Dictyostelium discoideum” (International Journal of Molecular Sciences, 2021)
# B1: Dictyostelium DyPA (Dictyostelium discoideum) (protein)
# chain: MAQSTVLPMHCLYGIFLEGNLKIQKNDQEGLKKFKDNIKKFTLELDEIDKISPQSRIGGAICFSSDIWDTVTKKISKPKELKSVNTLSSYMPGTSQRDILIHIISDRMDTCFKLAQDTMRNFGEDQLDIKQEIHGFRRVEERDLTDFIDGTENPDGDELRTQYGLVAAGQPNEFGSYVFTQRYVHNLKKWYPEPLSVQQDTVGRTKKDSIEIPRDKRPITSHVSRTDLSENGKDLKIVRQSLPYGQITGEKGLMFIAYACSLHNIEKQLQSMFGQLDGKHDLLLKYTTPVTGSFYFAPSKKELLEL
# notes: recombinant from E. coli Rosetta(DE3)pLysS, heme-reconstituted with hemin; homodimer
# Experiments:
# Experiment in all cases: purified protein
# Format in all cases: biochemical, Dictyostelium discoideum
# [1] = substrate: CCn1c(=NN=c2sc3cc(S(=O)(=O)O)ccc3n2CC)sc2cc(S(=O)(=O)O)ccc21; details: 1 mM H2O2, 50 mM sodium acetate pH 4.0, 150 mM NaCl, 25 °C
# [2] = substrate: COc1ccc(CO)cc1OC; details: 1 mM H2O2, 50 mM sodium acetate pH 4.0, 150 mM NaCl, 25 °C
# [3] = substrate: Nc1c(S(=O)(=O)O)cc(Nc2ccc(S(=O)(=O)O)c(Nc3nc(Cl)nc(Cl)n3)c2)c2c1C(=O)c1ccccc1C2=O; details: 1 mM H2O2, 50 mM sodium citrate pH 3.0, 150 mM NaCl, 25 °C
protein,measurement,setting,value
B1,Km,[1],4100 ± 400 µM
same,kcat,[1],89.9 ± 4.3 s⁻¹
same,kcat/Km,[1],21900 M⁻¹ s⁻¹
same,Km,[2],166 ± 58 µM
same,kcat,[2],0.000338 ± 3.5e-05 s⁻¹
same,kcat/Km,[2],2.03 M⁻¹ s⁻¹
same,Km,[3],40 ± 10 µM
same,kcat,[3],5.2 ± 0.38 s⁻¹
same,kcat/Km,[3],130000 M⁻¹ s⁻¹
